Reference: patent US8507655
Numbering of substitutions follows the chain as printed.

Key:
PA83 protective antigen [1] = target: PA83 protective antigen (Bacillus anthracis, UniProt P13423); test: SPR
Target sequence in this assay (P13423 30-764): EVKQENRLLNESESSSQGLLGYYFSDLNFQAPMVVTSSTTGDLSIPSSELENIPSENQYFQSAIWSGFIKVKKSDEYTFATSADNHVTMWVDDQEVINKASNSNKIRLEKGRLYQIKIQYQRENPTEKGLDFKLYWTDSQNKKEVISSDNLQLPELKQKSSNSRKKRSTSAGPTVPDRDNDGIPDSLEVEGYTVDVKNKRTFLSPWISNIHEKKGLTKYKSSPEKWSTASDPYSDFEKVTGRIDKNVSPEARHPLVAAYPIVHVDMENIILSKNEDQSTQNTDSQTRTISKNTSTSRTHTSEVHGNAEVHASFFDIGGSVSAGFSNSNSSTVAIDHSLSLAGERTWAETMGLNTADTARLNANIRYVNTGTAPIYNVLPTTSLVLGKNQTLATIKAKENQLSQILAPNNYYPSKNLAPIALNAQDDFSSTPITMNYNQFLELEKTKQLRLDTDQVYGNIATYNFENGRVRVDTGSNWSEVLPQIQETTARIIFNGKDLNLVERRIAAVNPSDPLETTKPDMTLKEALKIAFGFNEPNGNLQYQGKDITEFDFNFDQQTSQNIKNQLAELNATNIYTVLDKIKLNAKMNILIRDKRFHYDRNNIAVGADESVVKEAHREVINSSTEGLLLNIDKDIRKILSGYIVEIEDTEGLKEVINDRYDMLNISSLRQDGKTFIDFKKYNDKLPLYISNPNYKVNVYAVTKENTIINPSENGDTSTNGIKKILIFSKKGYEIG

PA83 protective antigen [2] = target: PA83 protective antigen (Bacillus anthracis, UniProt P13423); test: SPR; remark: listed apart in the source
Target sequence in this assay (P13423 30-764): as above

B1: J24-15 (antibody, V domains shown)
VH: QVQLQESGPGLLKPSETLSLTCAVSGDSISGGYYWSWIRQSPGKGLEWIGHIYGSTADTRYNPSLKSRVTISKDTSKNQLSLQLRSVTAADTAVYYCARSGYNFWSGEYYGLDLWGQGAVVTVSS
VL: AIQLTQSPSSLSAYVGDKVTITCHASQGINSWLAWYQQKPGKAPKLLIYKARSLQSGVPSRFSGSGSGTDYTLTISSLQSEDFASYYCLQYDSAPLAFGPGTKLDIK
PA83 protective antigen [1]
  Kd: 0.88 nM

B2: v2 (antibody, V domains shown)
VH: B1 VH with G31S, R60K, K66R, L114S
VL: B1 VL with R52S
PA83 protective antigen [1]
  Kd: 0.66 nM

B3: J24-7 (antibody, V domains shown)
VH: B1 VH with L114S
VL: B1 VL with H24R, R52S, S56E
PA83 protective antigen [1]
  Kd: 0.78 nM

B4: 35PA83 Fab (parent) (antibody, V domains shown)
VH: GPGLLKPSETLSLTCAVSGDSISGGYYWSWIRQSPGKGLEWIGHIYGSTADTRYNPSLKSRVTISKDTSKNQLSLQLRSVTAADTAVYYCARSGYNFWSGEYYGLDSWGQGAVVTVSS
VL: TQSPSSLSAYVGDKVTITCHASQGINSWLAWYQQKPGKAPKLLIYKASSLQSGVPSRFSGSGSGTDYTLTISSLQSEDFASYYCLQYDSAPLAFGPGTKLDIK
PA83 protective antigen [1]
  Kd: 3.4 nM

B5: 5.20 (antibody, V domains shown)
VH: B4 VH with S69R
VL: B4 VL
PA83 protective antigen [2]
  Kd: 12.2 nM

B6: 5.15 (antibody, V domains shown)
VH: B4 VH with S117A
VL: B4 VL
PA83 protective antigen [2]
  Kd: 3.5 nM
